The target of test [1] is GD-Pangolin RBD displayed on S. cerevisiae (GD-Pangolin coronavirus).
Test [2] deals with SARS-Cov-1 RBD displayed on S. cerevisiae.
The target of test [3] is WIV1 RBD displayed on S. cerevisiae (WIV1 (bat sarbecovirus)). The test can be described thus: flow cytometry, S. cerevisiae displaying the RBD, AF633 anti-human IgG [WIV1]. In general terms: A flow cytometer gives signals particle by particle.
In test [4] the target is LYRa11 RBD displayed on S. cerevisiae (bat SARS-related coronavirus LYRa11). The test can be described thus: flow cytometry, S. cerevisiae displaying the RBD, AF633 anti-human IgG [LYRa11].
In test [5] the target is RaTG13 RBD displayed on S. cerevisiae (bat coronavirus RaTG13). The test can be described thus: flow cytometry, S. cerevisiae displaying the RBD, AF633 anti-human IgG [RaTG13].
The target in test [6] is WIV1-CoV RBD (WIV1-CoV (bat)).
Test [7] has as its target WIV1-CoV RBD (WIV1-CoV (bat)). Nature of the test: SPR, His-tagged VHH on NTA chip, RBD as analyte. (SPR reads the build-up and loss of mass on a sensor chip optically.)
Test [8] addresses Mouse IgG1 Fc fused SARS-CoV-2 RBD (Sino Biological) (SARS-CoV-2; mouse) (UniProt P0DTC2).

Where “and” joins values, the source holds several entries; their conditions need not be identical. Equal entries are not always repeated.

By EC50 (read off the curve) is commonly meant the concentration needed to bring the measured effect to its halfway point. One may read the koff as the rate constant with which the complex falls apart. Lower therefore signals slow dissociation. As usually defined, the kon is a measure of how fast the partners come together. The low end stands for slower complex formation, the high end for faster complex formation. One may read the Kd as the concentration at which binding is half-saturated.

On to S309 antibody, for which the EC50 (read off the curve) in test [1] was 1 µg/mL; in test [2], 0.5 µg/mL; in test [3] it was 0.7 µg/mL; in test [4] it was 0.8 µg/mL; in test [5], 0.8 µg/mL.
As for SARS VHH-72, in test [6], the koff was determined as 0.0026 s⁻¹ and the kon was 349000 M⁻¹ s⁻¹. This substance also showed a Kd in test [7] of 7.47 nM.
Turning to “VHH72-W52aH-hIgG1 Fc (P. pastoris supernatant) (Fc fusion)”, in test [8], the % Signal decrease over 8 min dissociation was 49% and 51%; the Kd was 120 nM and 92.2 nM.

For the origin of these results see patent US20230227537A1.
